Assay results from the DeepSol protein solubility set.

test: soluble on expression in E. coli; label from the status in PepcDB or PDB records

Sequence | soluble on expression in E. coli
MKVHNDFTLYWRVFPSGKKVVYYYAYDESGKRLMGRSTGETNLTSARVKCNKLLKEGELVPNKNHVPTFAEYAEGWWEWETCAYLKKRRKRYSLTQTYADNNKKNLKNHLLPFFGNMPMNKITKIEVEDFFDALIEKEYQNTSINGFYGTLKTMLIEAVERNIIPKDPTDKMGRLVNDRRAIKIITPEEFKKLFVGDWRRVWESDRLSYTANKLAALTGMRASEVVGLKGSFVYDEHIYLCMQYDDYGYRPTKTKDKHNIPLTSDMINELKELKRMNGDGFVFSLDGGATPICRNTVYKHFHRALRNIGITEDEISERHLHLHAWRHFFNTEMLKGGLTVTQAQAVTGHKSERMTEWYCHFDPTEFAKAKEVQEALLRPAQKKAAKEEKAGAKTSGNKDKAVKVIPFPRKENKTAGEETQASLILPLPIFKAPAGLRRELLFLPFQHFPFFFLNCRFVPFLSATGHGIFKAGMGESMEEYLTIFEVAELTKYTVGTLRKFVQKRRVAFHKWGRSLRFRRAEIELWMKMGCGKAVYLPADGDGQTKASAMEIGAES | not soluble
MKVIKGLTAGLIFLFLCACGGQQIKDPLNYEVEPFTFQNQDGKNVSLESLKGEVWLADFIFTNCETICPPMTAHMTDLQKKLKAGNIDVRIISFSVDPENDKPKQLKKFAANYPLSFDNWDFLTGYSQSEIEEFALKSFKAIVKKPEGEDQVIHQSSFYLVGPDGKVLKDYNGVENTPYDDIISDVKSASTLKLEHHHHHH | not soluble
MKVKEHCGIVGVYADNSPMISYESLKLLQHRGQESAGITYRKDGSLVTMKGLGLVEEALDPRLLPNAKLSIGHVRYSTTGKGSLDEAQPLSNGKIAIAFNGTITNYFKFGTSTDTEFILKVLSEAPNIKEGIRRLVDLADGAYSLVVLTNEGELIGFRDPKGFRPLVLGKINNGYIIASEDSVIRQLGGKPLRDVKPGEMIYIKDGEIESEVISRDRVSFCSFEYIYFARPDSIIDGVSVYNSRIKLGEILAENHGVDADVAIPVPESSIPIAIGFSRKSKIPMEYGLIRTLVAKRSFIMPTQDKRNAVLEEKFGIVKSVVENKKVVVIDDSIVRGNTMRKIVRMIRDNGAKEVHVRIGSPKVKYPCYMGIDFPLSKELIASEKDEKEIAKYIGADSVEFLTVEEMIKAIGRPDLCHACFSGVYPLKFSYNLQVLESIFKKVS | soluble
MKVLFLTANEFEDVELIYPYHRLKEEGHEVYIASFERGTITGKHGYSVKVDLTFDKVNPEEFDALVLPGGRAPERVRLNEKAVSIARKMFSEGKPVASICHGPQILISAGVLRGRKGTSYPGIKDDMINAGVEWVDAEVVVDGNWVSSRVPADLYAWMREFVKLLK | soluble
MKVLIDTNVILDVLLNRASFVQDAIAVLELTCGNIQAYVSASAITDIYYIAYKELRDKIRVKNLIKTLLQIITVAGISDKEIMSAIDSDWADFEDSLQNAVAESHDCSMIITRNISDFNGSNLQIISPKDFIVQFTHLEHHHHHH | not soluble
MKVSKIYTTIDAHVAGEPLRIITGGVPEIKGETQLERRAYCMEHLDYLREILMYEPRGHHGMYGCIITPPASAHADFGVLFMHNEGWSTMCGHGIIAVITVGIETGMFEVTGEKQKFIIDSPAGEVIAYATYSGSEVESVSFENVPSFVYKKDVPIKIDSYEFQVDIAFGGAFYAVVDSKEFGLKVDFKDLSAIQMWGGKIKHYIESKMEVKHPLEEGLKGIYGVIFSDDPKEKDATLRNVTIFADGQVDRSPCGTGTSARIATLFAKDALQKGEIFVHECITDGKFEGEVLSVTAVHTYEAVVPKVTGNAFITGFHQFVVDPRDDLNRGFLLGLEHHHHHH | not soluble
MKVTNLFKDKVDAISAHQSEFMNWMSPTLRDYWSDFLGKAQNSFLFSNVRDHNQPAVNEEVAPQPAPIVLQPEAQKLYDELSGKIGEVIHTGDWVHVSQERINQFGAVTEDMQWIHTDPERASVESPFKTTIAHGFLTLALLPKLTDSVDADKPLFPTAKLVVNLGLNQVRFPYPVKAGNNVRAVSTLTKVTPIKKGLEIEREIKVEIEGVRRPGAVVVSVIQLHFLEHHHHHH | soluble
MKVVRVCGGFGNQLFQYAFYLAVKHKFNETTKLDIHDMASYELHNGYELERIFNLNENYCSAEEKLAVQSTKNIFTKLLKEIKKYTPFIPRTYIKEKKHLHFSYQEVDLGTKDTSIYYRGSWQNPQYFNSIASEIREKLTFPEFTEPKSLALHQEISEHETVAVHIRRGDYLKHKALGGICDLPYYQNAIKEIEGLVEKPLFVIFSDDITWCRANINVEKVRFVDWNSGEQSFQDMHLMSLCTHNIIANSSFSWWGAWLNANPNKIVISPNKWIHYTDSMGIVPSEWIKVETSILEHHHHHH | not soluble
MKVWIKASALLTLAGLTACSASPTGRNQILMFSDQEMSSLGAKSFDQMKKDIPISKDKKTNAYVQCVAKQITNAIPPQAGFKDWEVVVFDSDQVNAFALPGGKIGVYTGLLKVAKNQDQLATVIGHEVAHVLAEHSNERLSQSQLANAGLSLANVAIGASEYKQYQQLTMAALGVGVQYGVILPYGRTQESEADIVGLEYMAKAGFNPNQSVDLWKNMSAASGGAQPPEFFSTHPSHSTRIKDLQATINKLPKYNVKAPKCGLEHHHHHH | not soluble
MKVYEFGKKENPAIMLLPGTCCHWKNNFSNVIDLLIEDFFVVCVSYDGFDETEKSEFQDMVTEVRKIENYINERFQGKIHAVYGCSLGG | not soluble
MKYIIIGLGNYGHVLAEELSTLGHEVIGADLDEGRVDSIKDKIATAFVIDATDEQSLSVLPLNSVDMVIVAIGENFGASIRVVAMLKQKQVKHIYARAIDGVHKAVLEAFGLEKILTPEEDAARSLVQLLDFGTKMETFRVDSEYYVVKFNVPEKFVGYFVNELNLDEEFNLKLIGLKRSNTIKNCLGISLVEHKVVNELPEDAKIRPDDVLVCYGKYSDFQKLWKALLEHHHHHH | soluble
MKYQVLLYYKYTTIEDPEAFAKEHLAFCKSLNLKGRILVATEGINGTLSGTVEETEKYMEAMQADERFKDTFFKIDPAEEMAFRKMFVRPRSELVALNLEEDVDPLETTGKYLEPAEFKEALLDEDTVVIDARNDYEYDLGHFRGAVRPDIRSFRELPQWIRENKEKFMDKKIVTYCTGGIRCEKFSGWLLKEGFEDVAQLHGGIANYGKNPETRGELWDGKMYVFDDRISVEINHVDKKVIGKDWFDGTPCERYINCANPECNRQILTSEENEHKHLGGCSLECSQHPANRYVKKHNLTEAEVAERLALLEAVEVLEHHHHHH | soluble
MLAAFISRVLRRVAQKSARRVLVASRNSSNDATFEIKKCDLYLLEEGPPVTTVLTRAEGLKYYRMMLTVRRMELKADQLYKQKFIRGFCHLCDGQEACCVGLEAGINPSDHVITSYRAHGVCYTRGLSVRSILAELTGRRGGCAKGKGGSMHMYTKNFYGGNGIVGAQGPLGAGIALACKYKGNDEICLTLYGDGAANQGQIAEAFNMAALWKLPCVFICENNLYGMGTSTERAAASPDYYKRGNFIPGLKVDGMDVLCVREATKFAANYCRSGKGPILMELQTYRYHGHSMSDPGVSYRTREEIQEVRSKRDPIIILQDRMVNSKLATVEELKEIGAEVRKEIDDAAQFATTDPEPHLEELGHHIYSSDSSFEVRGANPWIKFKSVS | soluble
MLAGLQKTTLVNFPRRVAAAVFLPGCNIRCPYCHNAELALASPSSFTANQESSNDYYELSEIYTFLERRKNLISGLVISGGEPFMSPALFELIERAKSLNLAVKIDTNGLFPERIEEVLRSSNLQPDMIAIDVKTSPERYGELLASKTDSAAKKAKTALLKTLDILKSNTEKTEVEYRTVLAPPLVSEDEIKKIASLLPKNARWRLAQFVPGTCLNPEWNSVEPYPLSQAQALTAIAKSLIPDTELR | not soluble
MLARSARLLHSAELAANAIRAASGAPATAAAAEASFPSTDDVAAKTKKTGNRIKTFEIYRFNPEAPGAKPTVQKFDVDLDQCGTMILDALIKIKNEVDPTLTFRRSCREGICGSCAMNIGGQNTLACICKIDSDTSKSTKIYPLPHMFVVKDLVPDMNLFYAQYASIQPWIQKKTPLTLGEKQMHQSVAERDRLDGLYECILCACCSTSCPSYWWNADKYLGPAVLMQAYRWVIDSRDDYATERLHRMHDSFSAFKCHTIMNCTKTCPKHLNPAKAIGEIKSLLTGFTSKPAAEPSAF | not soluble
MLCSRYFTSSLFLWGEALPTLLEEFLNEVEKMLKNQVNTRRIHQLLKELDDPLLENKDLEEKLQAFLDYVKEIPNLPEARKRYRIQKSLEMIEKLRSWFLIDYLECSGEEVDLSTDIQYAKGVGPNRKKKLKKLGIETLRDLLEFFPRDYEDRRKIFKLNDLLPGEKVTTQGKIVSVETKKFQNMNILTAVLSDGLVHVPLKWFNQDYLQTYLKQLTGKEVFVTGTVKSNAYTGQYEIHNAEVTPKEGEYVRRILPIYRLTSGISQKQMRKIFEENIPSLCCSLKETLPERILEKRKLLGVKDAYYGMHFPKTFYHLEKARERLAYEELFVLQLAFQKIRKEREKHGGIPKKIEGKLAEEFIKSLPFKLTNAQKRAHQEIRNDMISEKPMNRLLQGDVGSGKTVVAQLAILDNYEAGFQTAFMVPTSILAIQHYRRTVESFSKFNIHVALLIGATTPSEKEKIKSGLRNGQIDVVIGTHALIQEDVHFKNLGLVIIDEQHRFGVKQREALMNKGKMVDTLVMSATPIPRSMALAFYGDLDVTVIDEMPPGRKEVQTMLVPMDRVNEVYEFVRQEVMRGGQAFIVYPLIEESDKLNVKSAVEMYEYLSKEVFPEFKLGLMHGRLSQEEKDRVMLEFAEGRYDILVSTTVIEVGIDVPRANVMVIENPERFGLAQLHQLRGRVGRGGQEAYCFLVVGDVGEEAMERLRFFTLNTDGFKIAEYDLKTRGPGEFFGVKQHGLSGFKVADLYRDLKLLEWAREDVQEIDVEGIELPEEIKLIEVG | soluble
MLDGLTYAYGDLIEKVPDFEIIQRKSPKSGKVALVSGGGSGHKPAHAGFVGEGMLSAAVCGAIFTSPTPDQIYEAIKSADEGAGVLLIIKNYLGDVMNFEMAREMAEMEEIKVEQIIVDDDIAVENSLYTQGRRGVAGTVLVHKILGAAAHQEASLDEIKDLADKVVKNIKTIGLALSAATVPEVGKPGFVLDDNEIEYGVGIHSEPGYRREKMKTSYELATELVGKLKEEFKFEAGQKYGILVNGMGATPLMEQFIFMNDVAKLLTEENIEILFKKVGNYMTSIDMAGLSLTMIKLEDDQWLKNLNEDVKTISWGLEHHHHHH | not soluble
MLDIVLYEPEIPQNTGNIIRLCANTGFRLHLIEPLGFTWDDKRLRRSGLDYHEFAEIKRHKTFEAFLESEKPKRLFALTTKGCPAHSQVKFKLGDYLMFGPETRGIPMSILNEMPMEQKIRIPMTANSRSMNLSNSVAVTVYEAWRQLGYKGAVNLPEVKLEHHHHHH | soluble
MLDVHPSGFYAWLQQPHSQRHQADLRLTGQIKQFWLESGCVYGYRKIHLDLRDSGQQCGVNRVWRLMKRVGIKAQVGYRSPRARKGEASIVSPNRLQRQFNPDAPDERWVTDITYIRTHEGWLYLAVVVDLFSRKIIGWSMQSRMTKDIVLNALLMAVWRRNPEKQVLVHSDQGSQYTSHEWQSFLKSHGLEG | not soluble
